Where two headings read alike, the source gives them in different places.
How the values were obtained:
[1] = biological target: CBX1 chromodomain F50A (human, UniProt P83916 20-73, F50A); experiment: fluorescence polarisation
[2] = biological target: T1, wild-type CBX1 chromodomain (human, UniProt P83916 20-73); experiment: fluorescence polarisation
[3] = biological target: T1, wild-type CBX1 chromodomain

T1 sequence (P83916 20-73): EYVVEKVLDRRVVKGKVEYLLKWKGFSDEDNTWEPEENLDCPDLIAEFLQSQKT
Chain of CBX1 chromodomain F50A (P83916 20-73 F45A): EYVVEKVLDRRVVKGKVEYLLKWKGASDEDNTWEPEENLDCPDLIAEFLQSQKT

ARTKQTARKSTGGKA (pentenyl-lysine at 9; tetramethylrhodamine (TAMRA) label, position not stated) [TAMRA-labeled pentenyl-modified H3K9 peptide]
Kd [1]: 14.1 ± 2.8 µM

ARTKQTARKSTGGKA (trimethyl-lysine at 9; tetramethylrhodamine (TAMRA) label, position not stated) [TAMRA-labeled H3K9me3 peptide]
Kd [1]: 63.5 ± 6.2 µM

ARTKQTARKSTGGKA (allyl-lysine at 9; tetramethylrhodamine (TAMRA) label, position not stated) [TAMRA-labeled allyl-modified H3K9 peptide]
Kd [2]: 106 ± 20 µM

ARTKQTARKSTGGKA (dimethyl-lysine at 9) [H3K9me2 peptide]
Kd [3]: 18.3 µM

— article PMC6988089 (Journal of the American Chemical Society, 2019)
